The assay deals with SEL1L S658P, endogenous, liver of knock-in mice (mouse (endogenous in liver)) (UniProt Q9Z2G6). As to the kind of experiment: co-IP.
UniProt Q9Z2G6, sequence (Q9Z2G6 22-790, stated change not applied): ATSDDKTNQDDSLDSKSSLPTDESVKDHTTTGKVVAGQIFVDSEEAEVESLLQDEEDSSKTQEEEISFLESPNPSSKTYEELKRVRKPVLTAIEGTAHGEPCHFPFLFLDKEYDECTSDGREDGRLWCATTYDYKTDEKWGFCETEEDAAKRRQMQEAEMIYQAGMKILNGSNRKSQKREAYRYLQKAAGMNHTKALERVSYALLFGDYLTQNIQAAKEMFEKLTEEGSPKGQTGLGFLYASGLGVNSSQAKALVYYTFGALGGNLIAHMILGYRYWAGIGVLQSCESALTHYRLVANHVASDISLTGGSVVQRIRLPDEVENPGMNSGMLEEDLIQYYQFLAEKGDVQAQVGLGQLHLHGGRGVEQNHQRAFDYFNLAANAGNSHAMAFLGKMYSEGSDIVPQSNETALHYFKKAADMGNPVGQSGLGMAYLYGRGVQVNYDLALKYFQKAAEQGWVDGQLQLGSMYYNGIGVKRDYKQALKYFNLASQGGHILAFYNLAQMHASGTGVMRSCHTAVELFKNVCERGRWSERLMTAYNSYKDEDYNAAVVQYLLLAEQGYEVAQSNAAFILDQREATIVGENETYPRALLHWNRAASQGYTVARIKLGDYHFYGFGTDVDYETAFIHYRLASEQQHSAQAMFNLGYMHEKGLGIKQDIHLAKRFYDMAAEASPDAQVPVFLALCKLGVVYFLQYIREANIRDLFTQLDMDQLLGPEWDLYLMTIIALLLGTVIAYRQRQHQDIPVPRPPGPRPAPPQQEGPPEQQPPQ

For the substance “HRD1, endogenous, mouse liver (from UniProt Q9DBY1 1-612) (natural protein)”, the fold reduction of co-precipitated HRD1 against WT livers is 5 fold.

For the origin of these results see publication doi:10.1101/2023.04.13.536796.
